T1: SPRTN-EQ (catalytically inactive) (UniProt Q9H040 1-489, E112Q)
T1 sequence: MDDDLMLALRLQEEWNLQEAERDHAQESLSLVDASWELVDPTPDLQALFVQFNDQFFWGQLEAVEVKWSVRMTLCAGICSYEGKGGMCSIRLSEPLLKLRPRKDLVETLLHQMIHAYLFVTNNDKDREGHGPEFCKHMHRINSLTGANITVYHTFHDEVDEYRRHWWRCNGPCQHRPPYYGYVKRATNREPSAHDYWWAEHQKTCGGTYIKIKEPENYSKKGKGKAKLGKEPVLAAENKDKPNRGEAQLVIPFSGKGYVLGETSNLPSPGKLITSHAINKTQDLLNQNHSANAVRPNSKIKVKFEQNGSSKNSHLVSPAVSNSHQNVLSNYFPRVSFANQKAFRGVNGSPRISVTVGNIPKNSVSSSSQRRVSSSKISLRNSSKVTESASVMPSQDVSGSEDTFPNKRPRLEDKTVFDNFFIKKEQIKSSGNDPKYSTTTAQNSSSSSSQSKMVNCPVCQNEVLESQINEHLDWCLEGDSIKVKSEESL

B1: Junction-DPC (substrate e) (mixed)
DNA 1: CCCAAAAAAAAAAATAAAAAAAAAAAACCC
DNA 2: GGGTTTTTTTTTTTT
modifications: dT15 of strand 1 covalently conjugated to protein G; strand 1 3'-phosphate
B2: dsDPC (substrate f) (dsDNA)
DNA 1: B1 DNA 1
DNA 2: GGGTTTTTTTTTTTTATTTTTTTTTTTGGG
modifications: dT15 of strand 1 covalently conjugated to protein G; strand 1 3'-phosphate

Biological target: T1, SPRTN-EQ (catalytically inactive)
Assay: EMSA

Binder	binding result
B1	binds
B2	binds
